# Read-outs that look alike come from different tables or passages of the source.
# T1: hu-IL-2Rγc subunit (human), P31785
# T1 chain: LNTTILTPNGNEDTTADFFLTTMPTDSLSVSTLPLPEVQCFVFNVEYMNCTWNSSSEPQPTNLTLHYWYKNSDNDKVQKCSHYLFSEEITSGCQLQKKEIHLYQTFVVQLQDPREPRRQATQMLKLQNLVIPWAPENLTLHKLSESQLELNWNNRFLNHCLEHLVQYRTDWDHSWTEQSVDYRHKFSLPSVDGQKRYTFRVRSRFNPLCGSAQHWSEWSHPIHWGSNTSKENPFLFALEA
# T2: hu-IL-2Rβ subunit (human, UniProt P14784 27-240, limits assumed)
# T2 construct: also called human interleukin-2 receptor subunit β; CD122
# T2 sequence (looked up): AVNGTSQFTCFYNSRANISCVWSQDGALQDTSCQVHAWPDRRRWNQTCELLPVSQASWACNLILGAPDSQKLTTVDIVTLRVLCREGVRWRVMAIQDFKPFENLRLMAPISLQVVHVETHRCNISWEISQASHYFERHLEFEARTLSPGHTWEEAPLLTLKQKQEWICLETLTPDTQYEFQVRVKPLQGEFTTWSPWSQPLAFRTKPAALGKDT
# Key:
# [1] = molecular target: T1, hu-IL-2Rγc subunit (human), P31785
# [2] = molecular target: T1, hu-IL-2Rγc subunit (human), P31785; assay: phage ELISA competition assay
# hu-IL-2Rβ subunit = molecular target: T2, hu-IL-2Rβ subunit; assay: phage ELISA competition assay
Binder,IC50 [1] [µM],IC50 [2] [µM],IC50 (hu-IL-2Rβ subunit) [µM]
SAPERWVECEDWQGVELCWV (modifications not checked) [SEQ ID NO 650],< 100,< 10,
SGHCYPCWLAGLGELCDLNCG [SEQ ID NO 172],,,< 100
PEGREVVVCRDWYGVELCWQ (modifications not checked) [SEQ ID NO 639],< 100,< 10,
RVTWYPCWMAQLGELCDLEESV [SEQ ID NO 163],,,< 100
VECQEWGGVELCWC (modifications not checked) [SEQ ID NO 645],< 100,< 10,
WYPCWMANLGELCDLEYPSWAQ [SEQ ID NO 158],,,< 100
WYPCWMANLGELCDLEAERSPV [SEQ ID NO 168],,,< 100
GPRFYPCWIAQLGELCDLEDMG [SEQ ID NO 162],,,< 100
VRAWYPCWIARLGELCDLEVD [SEQ ID NO 178],,,< 100
WYPCWMAQLGELCDLDDHWPAM [SEQ ID NO 166],,,< 100
TANQTVVECQVWGGVELCWQ (modifications not checked) [SEQ ID NO 644],< 100,< 10,
WYPCWMAQLGELCDLDAGARHL [SEQ ID NO 160],,,< 100
VVCQDWEGVELCWQ (modifications not checked) [SEQ ID NO 652],< 100,< 10,
WLPCWMAQLGDLCDLEQYVPLP [SEQ ID NO 164],,,< 100
WFPCWMAQLGEVCDLD [SEQ ID NO 179],,,< 100
SAGRQEVVCQDWNGVELCWI (modifications not checked) [SEQ ID NO 654],< 100,< 10,
YLPCWMAHLGELCDLDSPLKAR [SEQ ID NO 165],,,< 100
RDQYYPCWMAQLGELCDLDEVF [SEQ ID NO 169],,,< 100
DVVCQNWEGVDLCWH (modifications not checked) [SEQ ID NO 653],< 100,< 10,
KSGWYPCWMAKLGELCDLEAQP [SEQ ID NO 161],,,< 100
WYPCHMAKLRELCDLD [SEQ ID NO 180],,,< 100
SLPCWMAQLGDLCELH [SEQ ID NO 181],,,< 100
IWGRTVVECQDWEGVELCWQ (modifications not checked) [SEQ ID NO 640],< 100,< 10,
WYPCWIARLGELCDLETSGGFP [SEQ ID NO 171],,,< 100
IECEEWRGVELCWQ (modifications not checked) [SEQ ID NO 638],< 100,< 10,
WYPCWRAQLGELCDLDPPIAVE [SEQ ID NO 167],,,< 100
RGMCYPCWFARLGELCDLECDQ [SEQ ID NO 159],,,< 100
DFERSYVVCQDWDGVELCWI (modifications not checked) [SEQ ID NO 648],< 100,< 10,
IVCEEWRGVELCWL (modifications not checked) [SEQ ID NO 647],< 100,< 10,
GQGREVVVCHDWYGVELCWQ (modifications not checked) [SEQ ID NO 655],< 100,< 10,

# Results, then the binder that gave them:
IC50 [1] [µM],IC50 [2] [µM],IC50 (hu-IL-2Rβ subunit) [µM],Binder
< 100,< 10,,IVCEDWRGVELCWI (modifications not checked) [SEQ ID NO 660]
< 100,< 10,,KSQVECQDWEGVELCWVVSE (modifications not checked) [SEQ ID NO 676]
< 100,< 10,,TDEVSCQEWEGVELCWIERQ (modifications not checked) [SEQ ID NO 694]
< 100,< 10,,ANQNTVVECQDWHGVELCWQ (modifications not checked) [SEQ ID NO 665]
< 100,< 10,,DRQVVCEEWDGVELCWIEES (modifications not checked) [SEQ ID NO 688]
< 100,< 10,,GNDDSYIVCEEWKGVELCWI (modifications not checked) [SEQ ID NO 669]
< 100,< 10,,DWRRSVVECQDWYGVELCWQ (modifications not checked) [SEQ ID NO 656]
< 100,< 10,,KYIVECQEWGGVELCWPEMV (modifications not checked) [SEQ ID NO 697]
< 100,< 10,,RPQIECQEWQGVELCWTREE (modifications not checked) [SEQ ID NO 678]
< 100,< 10,,GDRPKEVVCEDWKGVELCWI (modifications not checked) [SEQ ID NO 662]
< 100,< 10,,VSCQEWDGVELCWVDGDLAA (modifications not checked) [SEQ ID NO 679]
< 100,< 10,,RPEVVCQEWEGVELCWISPL (modifications not checked) [SEQ ID NO 690]
< 100,< 10,,IMCQEWDGVELCWLERDKAN (modifications not checked) [SEQ ID NO 680]
< 100,< 10,,KITVECQDWDGVELCWPTWI (modifications not checked) [SEQ ID NO 677]
< 100,< 10,,GPEVVCEEFNRVELCWVEYN (modifications not checked) [SEQ ID NO 696]
< 100,< 10,,PYGVVCQDWAGVELCWVENR (modifications not checked) [SEQ ID NO 683]
< 100,< 10,,GLEIACEDWYGVELCWLRRA (modifications not checked) [SEQ ID NO 681]
< 100,< 10,,INCQTWNGVELCWVDEGLYQ (modifications not checked) [SEQ ID NO 685]
< 100,< 10,,GYGVLCQEWQGVELCWPVQREAGV (modifications not checked) [SEQ ID NO 682]
< 100,< 10,,TWNMSELECQDWNGVEICWH (modifications not checked) [SEQ ID NO 668]
< 100,< 10,,RVQVECEDWNGVELCWPVRV (modifications not checked) [SEQ ID NO 687]
< 100,< 10,,DVVCQNWDGVDLCWH (modifications not checked) [SEQ ID NO 657]
< 100,< 10,,TLGRTVVECQDWGGVELCWQ (modifications not checked) [SEQ ID NO 658]
< 100,< 10,,VVCQEWEGVELCWQTGPGAHA (modifications not checked) [SEQ ID NO 699]
< 100,< 10,,PVEVRCQEWEGVELCWVVGI (modifications not checked) [SEQ ID NO 695]
< 100,< 10,,LNRSVWIECEEYEGVELCWL (modifications not checked) [SEQ ID NO 671]
< 100,< 10,,RLGVECQEWEGVDLCWISAF (modifications not checked) [SEQ ID NO 691]
< 100,< 10,,ERPRSFIECQEWEGVELCWL (modifications not checked) [SEQ ID NO 663]

# Source: patent US20240101959A1, “USE OF IL-2R-BETA-GAMMA AGONIST PEPTIDES IN CELL MANUFACTURING” (MEDIKINE, INC., priority 2022, published 2024)
